Results reported in PMC11491487.

Key:
[1] = biological target: chiRyR-I4657M/G4819E (chiRyR carrying the two resistance mutations) (rabbit) (UniProt P11716); assay: cryo-EM structure; 5 mg/ml purified chiRyR samples with 5 mM caffeine, 2 mM ATP, 100 µM CaM1234, Ca2+, 2% or 5% DMSO, with or without diamide (50 µM FLU or TET; 625 µM CHL); 1 h at room temperature; C4 symmetry in refinement
[2] = biological target: chimeric RyR (chiRyR): rabbit RyR1 carrying four Spodoptera frugiperda RyR residues of the diamide-binding pocket (rabbit) (UniProt P11716); assay: as above

| Substance | stoichiometry N [1] | stoichiometry N [2] |
| --- | --- | --- |
| chiRyR-I4657M/G4819E (chiRyR carrying the two resistance mutations), P11716 1-5037 (receptor) | 4 | – |
| chimeric RyR (chiRyR): rabbit RyR1 carrying four Spodoptera frugiperda RyR residues of the diamide-binding pocket, P11716 1-5037 (receptor) | – | 4 |
